{"source": "patent US20240369485A1", "about": "“FLUORESCENT SENSOR FOR MONITORING CALCIUM DYNAMICS” (priority 2021, published 2024)", "molecules": {"B1": {"name": "R-CatchER: red genetically encoded Ca^2+ indicator, mApple A145E/K198D/R216D, SEQ ID NO: 12 (protein)", "chain": "EENNMAIIKEFMRFKVHMEGSVNGHEFEIEGEGEGRPYEAFQTAKLKVTKGGPLPFAWDILSPQFMYGSKVYIKHPADIPDYFKLSFPEGFRWERVMNFEDGGIIHVNQDSSLQDGVFIYKVKLRGTNFPSDGPVMQKKTMGWEESEERMYPEDGALKSEIKKRLKLKDGGHYAAEVKTTYKAKKPVQLPGAYIVDIDLDIVSHNEDYTIVEQYEDAEGRHSTGGMDELYK"}}, "key": {"[1]": {"experiment": "In vitro kinetics by stopped flow spectrofluorometer", "format": "binding", "protocol": "In vitro kinetics by stopped flow spectrofluorometer. The kinetics were determined by a Hi-Tech SF-61 stopped-flow spectrofluorometer equipped with the mercury-Xe lamp (10 mm path length, dead time of 2.2 ms) at 20° C. For R-CatchER and its variant or R-CEPIA1er, excitation was at 569 nm and a long-pass 590 nm filter was used. For G-CEPIA1er, a 530 nm long-pass filter was set with excitation at 498 nm, while for MCD1, excitation at 587 nm and a long-pass 600 nm filter were applied. For association kinetics, R-CatchER, R-CatchER variant, MCD1, R-CEPIA1er, and G-CEPIA1er were mixed with the same buffer containing an increasing concentration of Ca^2+. For disassociation kinetics, R-CatchER, R-CatchER variant, MCD1, R-CEPIA1er, and G-CEPIA1er in buffers with concentration of Ca^2+ at Kd, were mixed with 5 mM EGTA or buffer. The raw data were fitted using either single exponential for R-CatchER, R-CatchER variant, and MCD1, or double exponential equations for R-CEPIA1er and G-CEPIA1er."}, "HeLa cells": {"tested_on": "HeLa cells", "experiment": "Confocal imaging of R-CatchER with ER-tracker green", "format": "cell-based", "protocol": "Confocal imaging of R-CatchER. HeLa cells were transfected with R-CatchER two days before fixing. Cells were fixed with 3.7% Thermo Scientific™ Pierce™ 16% Formaldehyde (w/v), methanol-free, and permeabilized with 0.1% Triton X-100. Cells were then stained with ER-Tracker green (Invitrogen) and with ProLong gold antifade mountant with DAPI (Invitrogen) for staining the nucleus. Confocal imaging then was performed using a Zeiss LSM 700 confocal laser scanning microscope (CLSM)."}, "[2]": {"experiment": "Quantum yield, extinction coefficient, and brightness determination", "format": "physicochemical", "design": "key to Brightness: extinction coefficient × quantum yield", "protocol": "Quantum yield, extinction coefficient, and brightness determination. The quantum yield values of all the variants were determined by measuring the emitted fluorescence intensities and absorbance intensities of the chromophore at different protein concentrations. The wildtype was used as a reference to calculate quantum yield. Brightness was defined as a visual perception in which a source appears to emit or reflect a given amount of light, which was obtained by multiplying the extinction coefficient and the quantum yield."}, "ER Ca^2+": {"tested_on": "ER Ca^2+", "experiment": "Quantitative basal/resting ER Ca^2+ measurement using R-CatchER", "format": "cell-based"}, "C2C12 cells": {"tested_on": "C2C12 cells", "experiment": "HILO imaging of ER Ca^2+ dynamics in C2C12 cells", "format": "cell-based", "conditions": "ER Ca^2+ release", "protocol": "Cell culture and transfection. C2C12, HEK293 and HeLa cells were cultured and maintained in Dulbecco's modified Eagle's medium (DMEM) supplemented with 10% fetal bovine serum (FBS) and high glucose (4.5 g/L) at 37° C. R-CatchER, G-CatchER2, G-CEPIA1er, R-CEPIA1er or R-CatchER with GFP-CaSR (wt and mutations) were transfected into cells using Lipofectamine 3000 (Life Technologies), following the manufacturer's instructions. Seed cells onto sterilized 22 mm×40 mm glass microscope slides in 6 cm dishes until about 70% confluency, the day of transfection. The next day, 2 μg of plasmid were mixed with transfection reagent in the reduced serum media Opti-MEM for 4-6 h at 37° C. The media was then replaced with 3 mL of fresh DMEM and incubated at 37° C. for 48 h.\nHILO imaging of R-CatchER, G-CatchER2, R-CEPIA1er, and G-CEPIA1er. […] A quad-band filter set (TRF89901v2, Chroma) was used for filtering out the fluorescence background. Fluorescence images of samples were recorded at 1 Hz as the concentration of ER Ca^2+ was perturbed by perfusion of 3 μM Thapsigargin, 0.5 mM 4-cmc, 1 mM 4-cmc, 100 μM ATP, or 100 μM histamine."}}}
{"molecule": "B1", "values": [{"measurement": "kon", "setting": "[1]; Ca^2+ association", "result": ">7e+06", "unit": "M⁻¹ s⁻¹"}, {"measurement": "koff", "setting": "[1]; Ca^2+ dissociation", "result": ">2000", "unit": "s⁻¹"}, {"measurement": "Ca^2+ association rate kon", "setting": "[1]; stopped-flow, dead time 2.2 ms, 20° C.", "result": "≥ 7e+06", "unit": "M⁻¹ s⁻¹"}, {"measurement": "Pearson's Coefficient of colocalisation with ER-tracker green", "setting": "HeLa cells", "result": 0.83}, {"measurement": "Brightness", "setting": "[2]; Apo", "result": "0.13 ± 0.02"}, {"measurement": "Extinction coefficient", "setting": "[2]; Apo", "result": 44000, "unit": "M⁻¹ cm⁻¹"}, {"measurement": "Fluorescence quantum yield", "setting": "[2]; Apo", "result": "0.30 ± 0.02"}, {"measurement": "Brightness", "setting": "[2]; Holo", "result": "0.30 ± 0.03"}, {"measurement": "Extinction coefficient", "setting": "[2]; Holo", "result": 60000, "unit": "M⁻¹ cm⁻¹"}, {"measurement": "Fluorescence quantum yield", "setting": "[2]; Holo", "result": "0.50 ± 0.03"}, {"measurement": "ε (holo) (×10^4) (M^−1 cm^−1)", "setting": "[2]; Holo", "result": "6 ×10^4 M^−1 cm^−1"}, {"measurement": "ε (apo) (×10^4) (M^−1 cm^−1)", "setting": "[2]; apo", "result": "4 ×10^4 M^−1 cm^−1"}, {"measurement": "Φ (apo)", "setting": "[2]; apo, quantum yield", "result": 0.30}, {"measurement": "Φ (holo)", "setting": "[2]; holo, quantum yield", "result": 0.50}, {"measurement": "Basal [Ca^2+]ER", "setting": "ER Ca^2+; 6-23 cells, 0.5 mM Ca^2+", "result": "735.0 ± 66.7", "unit": "µM"}, {"measurement": "Basal [Ca^2+]ER", "setting": "ER Ca^2+; CaSR L173P, 1.8 mM Ca^2+", "result": "893.6 ± 67.6", "unit": "µM"}, {"measurement": "Basal [Ca^2+]ER", "setting": "ER Ca^2+; CaSR P221L, 1.8 mM Ca^2+", "result": "477.7 ± 49.4", "unit": "µM"}, {"measurement": "Basal [Ca^2+]ER", "setting": "ER Ca^2+; CaSR P221Q, 1.8 mM Ca^2+", "result": "674.6 ± 50.2", "unit": "µM"}, {"measurement": "Basal [Ca^2+]ER", "setting": "ER Ca^2+; CaSR S820F, 1.8 mM Ca^2+", "result": "406.1 ± 41.4", "unit": "µM"}, {"measurement": "Basal [Ca^2+]ER", "setting": "ER Ca^2+; GFP-CaSR, 0.5 mM Ca^2+", "result": "487.1 ± 48.2", "unit": "µM"}, {"measurement": "resting ER Ca^2+ concentration", "setting": "ER Ca^2+; HEK293 cells", "result": "0.68 ± 0.22", "unit": "mM"}, {"measurement": "resting ER Ca^2+ concentration", "setting": "ER Ca^2+; HeLa cells", "result": "0.59 ± 0.16", "unit": "mM"}, {"measurement": "Basal [Ca^2+]ER", "setting": "ER Ca^2+; TT cells, 0.5 mM Ca^2+", "result": "539.0 ± 65.9", "unit": "µM"}, {"measurement": "fluorescence decrease ΔF/F", "setting": "C2C12 cells; 0.5 mM 4-cmc", "result": "0.36±0.01"}, {"measurement": "fluorescence decrease ΔF/F", "setting": "C2C12 cells; 1 mM 4-cmc", "result": "0.47±0.02"}]}
